# Measured values from US20250154198A1, “PEPTIDE INHIBITORS OF INTERLEUKIN-23 RECEPTOR” (Zealand Pharma A/S, priority 2021, published 2025).
# Read-outs that look alike come from different tables or passages of the source. *1 amine or outer side, *2 acyl side, *3 side chain or, on linkers, in order; H or OH if unused. Bridges are numbered along the chain shown (N, C = ends). [ ]: non-standard residue; d: D form. 1,3‑dibromopropan‑2‑one = linker (CAS 816-39-7) joining two Cys as 1,3-dithio-propan-2-one bridge -SCH2C(=O)CH2S-; 2Nal = N[C@@H](Cc1ccc2ccccc2c1)C(=O)O; AEF = NCCOc1ccc(C[C@H](N)C(=O)O)cc1; CH2COCH2 = O=C(C[*:1])C[*:2]; 3Amb = NCc1cccc(C(=O)O)c1
# T1: human IL-23R endogenously expressed on DB cells (CRL-2289) (human, UniProt Q5VWK5 24-629)
# T1 sequence (looked up): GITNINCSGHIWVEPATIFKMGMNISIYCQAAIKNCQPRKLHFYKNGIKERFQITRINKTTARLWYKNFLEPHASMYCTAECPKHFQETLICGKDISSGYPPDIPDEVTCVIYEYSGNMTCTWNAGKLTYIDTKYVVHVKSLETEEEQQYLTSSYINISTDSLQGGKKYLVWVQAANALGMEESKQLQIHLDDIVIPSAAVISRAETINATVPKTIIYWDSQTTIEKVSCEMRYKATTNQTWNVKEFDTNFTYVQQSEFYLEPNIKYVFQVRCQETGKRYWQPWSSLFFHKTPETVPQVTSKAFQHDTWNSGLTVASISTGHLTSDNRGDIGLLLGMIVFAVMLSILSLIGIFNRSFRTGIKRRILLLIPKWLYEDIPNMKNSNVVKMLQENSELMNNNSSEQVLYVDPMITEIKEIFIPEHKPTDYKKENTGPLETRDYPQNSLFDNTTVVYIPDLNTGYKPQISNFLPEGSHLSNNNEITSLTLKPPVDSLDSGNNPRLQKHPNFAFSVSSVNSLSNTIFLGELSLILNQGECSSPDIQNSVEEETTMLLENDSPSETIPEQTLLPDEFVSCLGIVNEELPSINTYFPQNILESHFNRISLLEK
# T2: Nluc-IL23R fusion protein (human, UniProt Q5VWK5 22-629)
# T2 construct: range 22-629; Stably expressed in HEK293 cells; also called hIL-23R; human IL-23R fused to a Nanoluc luciferase enzyme; not shown: Nanoluc luciferase (Promega N1371 plasmid) at the N-terminus
# T2 sequence (looked up): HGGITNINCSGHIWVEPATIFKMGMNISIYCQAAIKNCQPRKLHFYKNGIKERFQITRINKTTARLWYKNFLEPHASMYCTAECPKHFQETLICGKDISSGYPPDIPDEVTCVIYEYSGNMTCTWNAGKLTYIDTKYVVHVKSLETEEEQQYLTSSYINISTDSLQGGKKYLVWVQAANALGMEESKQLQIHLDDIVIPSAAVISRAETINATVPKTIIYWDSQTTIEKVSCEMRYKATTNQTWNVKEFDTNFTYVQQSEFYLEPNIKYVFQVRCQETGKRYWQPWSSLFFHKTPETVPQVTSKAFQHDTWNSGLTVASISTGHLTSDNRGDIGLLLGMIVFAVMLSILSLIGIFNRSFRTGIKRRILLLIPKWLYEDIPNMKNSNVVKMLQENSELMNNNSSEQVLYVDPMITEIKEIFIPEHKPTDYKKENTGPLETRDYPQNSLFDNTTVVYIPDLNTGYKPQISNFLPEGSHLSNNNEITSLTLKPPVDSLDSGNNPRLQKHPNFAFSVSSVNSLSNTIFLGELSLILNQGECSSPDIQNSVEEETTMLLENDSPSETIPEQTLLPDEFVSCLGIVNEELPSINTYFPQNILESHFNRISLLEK
# B1: Compound 29 (peptide)
# peptide: Ac-KSCWQC[AEF][2Nal]LER-NH2
# modifications: lactam 1-10; linker 3-6 via CH2COCH2
# SMILES: CC(=O)N[C@H]1CCCCNC(=O)CC[C@@H](C(=O)N[C@@H](CCCNC(=N)N)C(N)=O)NC(=O)[C@H](CC(C)C)NC(=O)[C@H](Cc2ccc3ccccc3c2)NC(=O)[C@H](Cc2ccc(OCCN)cc2)NC(=O)[C@@H]2CSCC(=O)CSC[C@H](NC(=O)[C@H](CO)NC1=O)C(=O)N[C@@H](Cc1c[nH]c3ccccc13)C(=O)N[C@@H](CCC(N)=O)C(=O)N2
# B2: Compound 19 (peptide)
# peptide: DKSCWQCWXLER
# HELM: PEPTIDE1{[ac].D.K.S.C.W.Q.C.W.[O=C([C@H](Cc1ccc2ccccc2c1)N[*:1])[*:2]].L.E.R.[am]}|CHEM1{[O=C(C[*:1])C[*:2]]}$PEPTIDE1,PEPTIDE1,3:R3-12:R3|PEPTIDE1,CHEM1,5:R3-1:R1|PEPTIDE1,CHEM1,8:R3-1:R2$$$V2.0
# SMILES: CC(=O)N[C@@H](CC(=O)O)C(=O)N[C@H]1CCCCNC(=O)CC[C@@H](C(=O)N[C@@H](CCCNC(=N)N)C(N)=O)NC(=O)[C@H](CC(C)C)NC(=O)[C@H](Cc2ccc3ccccc3c2)NC(=O)[C@H](Cc2c[nH]c3ccccc23)NC(=O)[C@@H]2CSCC(=O)CSC[C@H](NC(=O)[C@H](CO)NC1=O)C(=O)N[C@@H](Cc1c[nH]c3ccccc13)C(=O)N[C@@H](CCC(N)=O)C(=O)N2
# B3: I4 (isomer 3) (peptide)
# peptide: H-ECWLCYYRNCNCM-NH2
# modifications: linker 5-10, 2-12 via 1,3‑dibromopropan‑2‑one
# notes: Peptide of Heinis et al., 2020, synthesised and tested by the inventors
# Assays:
# [1] = target: T1, human IL-23R endogenously expressed on …; assay: cell-based or functional assay
# [2] = target: T1, human IL-23R endogenously expressed on …; assay: cell-based or functional assay; remark: listed apart in the source
# [3] = target: T1, human IL-23R endogenously expressed on …; assay: cell-based or functional assay; remark: listed apart in the source
# [4] = target: T1, human IL-23R endogenously expressed on …; assay: cell-based or functional assay; remark: listed apart in the source
# [5] = target: T2, Nluc-IL23R fusion protein; assay: BRET displacement of TAMRA-labelled peptide, Nluc-IL23R membranes
# Method: (§1) The plate was sealed with light impermeable plate seals, and incubated on a orbital shaker 400 rpm for 2 hours at room temperature. To determine the BRET ratio, the plate seal was removed and 25 μL of the Nanoluc substrate (Promega N1572) diluted 1:500 was added to each well and incubated for 1-2 minutes on an orbital shaker at 400 rpm. […] The BRET ratio was calculated as the fluorescence from the TAMRA/nanoluc bioluminescence. The IC₅₀ for each compound was determined by computer-aided curve fitting using a 4-parameter logistic (4PL) non-linear model.
# [6] = target: T2, Nluc-IL23R fusion protein; assay: as above; remark: listed apart in the source
# Method: as §1
# [7] = target: T2, Nluc-IL23R fusion protein; assay: as above; remark: listed apart in the source
# Method: as §1
# [8] = target: T2, Nluc-IL23R fusion protein; assay: as above; remark: listed apart in the source
# Method: as §1
# [9] = target: T1, human IL-23R endogenously expressed on …; assay: cell-based or functional assay; remark: listed apart in the source
# [10] = target: T1, human IL-23R endogenously expressed on …; assay: cell-based or functional assay; remark: listed apart in the source
# [11] = target: T1, human IL-23R endogenously expressed on …; assay: cell-based or functional assay; remark: listed apart in the source
# [12] = target: T1, human IL-23R endogenously expressed on …; assay: cell-based or functional assay; remark: listed apart in the source
# [13] = target: T2, Nluc-IL23R fusion protein; assay: BRET displacement of TAMRA-labelled peptide, Nluc-IL23R membranes; remark: listed apart in the source
# Method: as §1
# [14] = target: T2, Nluc-IL23R fusion protein; assay: as above; remark: listed apart in the source
# Method: as §1
# [15] = target: T2, Nluc-IL23R fusion protein; assay: as above; remark: listed apart in the source
# Method: as §1
# [16] = target: T1, human IL-23R endogenously expressed on …; assay: cell-based or functional assay; remark: listed apart in the source
# [17] = target: T2, Nluc-IL23R fusion protein; assay: BRET displacement of TAMRA-labelled peptide, Nluc-IL23R membranes; remark: listed apart in the source
# Method: as §1
# [18] = target: T1, human IL-23R endogenously expressed on …; assay: cell-based or functional assay; remark: listed apart in the source
# [19] = target: T2, Nluc-IL23R fusion protein; assay: BRET displacement of TAMRA-labelled peptide, Nluc-IL23R membranes; remark: listed apart in the source
# Method: as §1
binder,measurement,setting,value
"H-DESCWQCWWLKR-NH2 (lactam 2-11; linker 4-7 via 1,3‑dibromopropan‑2‑one) [Compound 4]",IC50 (pSTAT3),[1],> 1 µM
same,IC50 (pSTAT3),[2],> 1 µM
same,IC50 (pSTAT3),[3],> 1 µM
same,IC50 (pSTAT3),[4],847 nM
same,Ki,[5],143 nM
same,Ki,[6],143 nM
same,Ki,[7],143 nM
same,Ki,[8],143 nM
Ac-DESCWQCW[2Nal]LKR-NH2 (lactam 2-11; linker 4-7 via CH2COCH2) [Compound 17],IC50 (pSTAT3),[3],366 nM
same,IC50 (pSTAT3),[4],366 nM
same,Ki,[7],70.7 nM
same,Ki,[8],70.7 nM
B1,IC50 (pSTAT3),[9],19.7 nM
same,IC50 (pSTAT3),[4],19.7 nM
B2,IC50 (pSTAT3),[10],32.3 nM
same,IC50 (pSTAT3),[11],32.3 nM
same,IC50 (pSTAT3),[4],33.2 nM
same,Ki,[8],6.33 nM
Ac-KSCWQCW[2Nal]LER-NH2 (lactam 1-10; linker 3-6 via CH2COCH2) [Compound 18],IC50 (pSTAT3),[10],17.6 nM
same,IC50 (pSTAT3),[12],17.6 nM
same,IC50 (pSTAT3),[9],17.6 nM
same,IC50 (pSTAT3),[4],17.6 nM
same,Ki,[13],2.85 nM
same,Ki,[14],2.85 nM
same,Ki,[15],2.85 nM
same,Ki,[8],2.85 nM
B3,IC50 (pSTAT3),[16],> 1 µM
same,IC50 (pSTAT3),[4],> 1 µM
same,Ki,[17],> 1000 nM
[3Amb]SCWQCW[2Nal]LER-NH2 (lactam N-10; linker 3-6 via CH2COCH2) [Compound 37],IC50 (pSTAT3),[12],44.6 nM
same,IC50 (pSTAT3),[18],44.6 nM
same,IC50 (pSTAT3),[4],44.6 nM
same,Ki,[14],9.86 nM
same,Ki,[19],9.86 nM
same,Ki,[8],9.87 nM
